Source: patent US20240343762A1, “USE OF PROTON PUMP MODULATOR IN PREPARING REAGENT” (SHANGHAI QUIETD BIOTECHNOLOGY CO. LTD., priority 2021, published 2024)

Columns and labels:
[1] = molecular target: T1, murine ATP6V1B2 1-286aa truncated sequence (Mus musculus, UniProt P62814); assay: Co-immunoprecipitation of EGFP-tagged QD202 with Myc-tagged ATP6V1B2 1-286aa truncated sequence in 293 cells; format: binding; details: Myc antibody, immunoblotting
T1 construct: expressed in transfected cells; host or cells: 293 cells
T1 sequence (P62814 1-286): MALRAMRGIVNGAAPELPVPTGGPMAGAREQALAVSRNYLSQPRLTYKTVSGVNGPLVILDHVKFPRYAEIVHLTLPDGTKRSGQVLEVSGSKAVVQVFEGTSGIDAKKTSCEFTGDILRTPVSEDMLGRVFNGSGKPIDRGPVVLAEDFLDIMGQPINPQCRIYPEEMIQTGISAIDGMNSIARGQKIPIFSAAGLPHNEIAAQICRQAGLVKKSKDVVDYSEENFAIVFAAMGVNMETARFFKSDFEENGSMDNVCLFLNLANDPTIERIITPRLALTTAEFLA
Source text: Expression plasmids including murine ATP6V1B2 full-length sequence, 1-286aa truncated sequence or 1-172aa truncated sequence with a Myc tag are respectively constructed; the amino acid sequence of the murine ATP6V1B2 full-length sequence was as set forth in SEQ ID NO. 8, the amino acid sequence of the murine ATP6V1B21-286aa was as set forth in SEQ ID NO. 10; the amino acid sequence of the murine ATP6V1B21-172aa as set forth in as SEQ ID NO. 11; and these plasmids were respectively called as an ATP6V1B2 full-length expression plasmid, an ATP6V1B21-286aa expression plasmid and an ATP6V1B21-172aa expression plasmid. Meanwhile, a QD202 expression plasmid with an EGFP tag was constructed. […]
Then a Protein G agarose bead was added to be bound to the Myc antibody, so as to precipitate the ATP6V1B2 full-length protein, the 1-286aa truncated sequence or the 1-172aa truncated sequence, and proteins which were bound to one another, and finally the proteins subjected to co-immunoprecipitation was detected by virtue of an immunoblotting method.

ATP6V1B2 = ATP6V1B2 (Mus musculus, UniProt P62814); assay: Immunoprecipitation from hippocampus of mice given biotin-labeled polypeptide, with SDS-PAGE and protein mass spectrum identification; format: binding; set-up: from tissue; host or cells: mouse brain hippocampus; details: biotin-labeled polypeptide 6.25 mg/kg through veins, hippocampus collected after 4 h, compared with disordered control QD201
Sequence of ATP6V1B2 (P62814 whole entry): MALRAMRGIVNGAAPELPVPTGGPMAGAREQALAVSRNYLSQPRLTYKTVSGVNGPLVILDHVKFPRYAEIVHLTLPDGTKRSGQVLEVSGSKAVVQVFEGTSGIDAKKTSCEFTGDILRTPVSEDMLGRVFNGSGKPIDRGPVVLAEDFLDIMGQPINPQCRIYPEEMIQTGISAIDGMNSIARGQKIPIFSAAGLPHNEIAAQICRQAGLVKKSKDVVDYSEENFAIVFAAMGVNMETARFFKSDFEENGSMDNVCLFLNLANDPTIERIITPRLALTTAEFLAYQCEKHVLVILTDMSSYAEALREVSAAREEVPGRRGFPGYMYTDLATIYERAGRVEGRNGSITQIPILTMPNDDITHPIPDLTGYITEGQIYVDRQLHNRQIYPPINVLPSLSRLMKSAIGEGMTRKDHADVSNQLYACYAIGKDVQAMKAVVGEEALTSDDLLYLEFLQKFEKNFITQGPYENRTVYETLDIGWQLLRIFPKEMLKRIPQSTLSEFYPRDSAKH
Procedure: (1) Polypeptide QD202 was synthesized according to the amino acid sequence as set forth in SEQ ID NO. 1, and a biotin label was added at the […] of the polypeptide; and the amino acid sequence of the QD202 was randomly disorganized, a disordered control QD201 (the amino acid sequence as set forth in SEQ ID NO. 7) was synthesized, and the biotin label was added at the […] of the polypeptide. The polypeptide QD202 and the QD201 were dissolved by PBS, and a storage solution is prepared with the concentration of 500 μM.
(2) The biotin-labeled QD202 and QD201 were respectively feed to 2 C57BL/6 mice of 8 months old through veins at the dosage of 6.25 mg/kg. The mice were anesthetized after 4 h, brain hippocampus tissues were collected, a lysis buffer solution was added, the tissues were crushed by mechanical grinding, and then supernatant was collected after centrifuging. The biotin antibody and Protein G agarose beads were added into the supernatant for immunoprecipitation, the test steps referred to Using Antibodies: A Laboratory Manual [J]. Science Press, 2002. The proteins were eluted by a protein loading buffer solution. […]

[2] = test system: APP/PS1 transgenic AD mice; assay: New object recognition test in APP/PS1 transgenic AD mice; format: in vivo, mouse; details: continuously for 1 week, mice of 10 months old
Procedure: A new object recognition test was carried out by an open field box (40×40×35 cm, made of blue opaque plastic) with reference to a behavior test scheme recorded by Leger, M., et al. Object recognition test in mice. Nat Protoc. 8, 2531-2537 (2013). On the first day, mice were put into the open field box to adapt for 10 min. On the second day, each mouse was lightly put in the center of the box, two similar objects (a battery I) were put in the central area and freely explore for 10 min, and then the mice were sent back to feeding cages. After 3 h, the mice were put back to the box again (one battery was replaced with a doll toy which was 10 cm high) for 10 min to carry out a memory retention test. A video was analyzed by Etho Vision XT 14 software, and the time for exploring new/old objects by the mice was recorded. The discrimination index was computed as (Tnovel−Tfamliar)/(Tnovel+Tfamiliar).
APP/PS1 transgenic mice of 10 months old (purchased from MODEL ORGANISMS) were selected, and equally divided into three groups; the mice were administrated with a PBS buffer solution (group 2), […]

QD202: polypeptide synthesized according to the amino acid sequence as set forth in SEQ ID NO. 1 (YGRKKRRQRRRSPVDVVCS; QD202)
binding to ATP6V1B2 1-286aa truncated sequence by co-immunoprecipitation [1]: only the full-length ATP6V1B2 protein can be combined
protein specifically bound to the polypeptide (mass spectrum identification) (ATP6V1B2): protein specifically bound to QD202 was ATP6V1B2
learning and cognitive functions in new object recognition ([2]; intragastric, 6.25 mg/kg): obvious improvement of learning and cognitive functions
learning and cognitive functions in new object recognition ([2]; intravenous, 1.25 mg/kg): obvious improvement on learning and cognitive functions
